B1: 单抗11-CQTS055 (antibody, V domains shown)
VH: EVQLVESGGGLVQPGGSLRLSCAASGFTFSNYDMHWVRQGTGKGLEWVSAIGTAGDTYYPGSVKGRFTISRENAKNSLYLQMNSLRAGDTALYYCARVGYYGSGSYPLYWYFDLWGRGTLVTVSS
VL: DIQMTPSPSSLSASVGDRVTITCRASQSISIYLNWYQQKPGKAPKLLIYAASNLQSGVPSRFSGSGSGTEFTLTISSLQPEDFATYFCQQSYSAPPWTFGQGTRVEIR
notes: also called 实施例1的新冠病毒RBD特异性单克隆抗体
B2: 单抗20-CQTS065 (antibody, V domains shown)
VH: EMQLVESGGGLVQPGGSLRLSCAASGFTFSTYEMNWVRQAPGKGLEWVSYISSSTNSIYYAGSVQGRFTISRGNAKNSLYLQMNSLRAEDTAVYYCARGRDDYGDYRGGDFDYWGQGTLVTVSS
VL: QIVLTQSPATLSLSPGERATLSCRASQSVTTYLAWYQQKPGQAPRLLIYDASHRATGIPARFSGSGSGTDFTLTISSLEPEDFAVYYCQQRSNWPPITFGPGTKVEIK
B3: 单抗12-CQTS056 (antibody, V domains shown)
VH: EVQLVQSGAEVKKPGESLKISCQGSGFSFSNYWIGWVRQMPGKGLEWMGIIYPDDSDTRYSPSFQGQVTISADKSISTAFLQWSSLKASDTAMYYCATRTGWTNDAFDIWGQGTMVTVSS
VL: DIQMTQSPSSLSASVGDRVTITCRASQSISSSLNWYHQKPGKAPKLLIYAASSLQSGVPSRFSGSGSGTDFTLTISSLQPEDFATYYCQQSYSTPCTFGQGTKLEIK
B4: 单抗13-CQTS057 (antibody, V domains shown)
VH: QVTLRESGPALVKPTQTLTLTCTFSGFSLSTSGMCVSWIRQPPGKALEWLARIDWDDDKYYSTSLRTRLTISKDTSKNLVVLTMTNMDPVDTATYYCALGRAGTMDYWGQGTLVTVSS
VL: DIQMTQSPSSLSASVGDRVTITCRASQSIRSYLNWYQQKPGKAPKVLIYAASSLQSGVPSRFSGSGSGTDFTLTISSLQPGDFATYYCQQSYSPPYTFGQGTKLEIK
B5: 单抗14-CQTS058 (antibody, V domains shown)
VH: EVQLVESGGGLVQPGRSLRLSCAASGFTFDDYAMHWVRQAPGKGLEWVSGISWSSGSIVYADSVKGRFTVSRDNAKNSLYLQMNSLRVEDTAFYYCAKDMVAGPHYYGMDVWGQGTTVTVSS
VL: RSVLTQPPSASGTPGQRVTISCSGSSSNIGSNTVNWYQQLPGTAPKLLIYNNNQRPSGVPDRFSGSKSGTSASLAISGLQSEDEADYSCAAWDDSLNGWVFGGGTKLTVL
B6: 单抗15-CQTS059 (antibody, V domains shown)
VH: EVQLVQSGAEVKKPGESLKISCKASGYRFTNYWTVWVRQMPGKGLEWMGIIYPGDSEIRYSPPFQGQVTISADKSISTAYLQWSSLKASDTAMYYCARHPSNFYDSGGDYYAMDVWGQGTPVTVSS
VL: QSALTQPASVSGSPGQSITISCTGTSSNVGNYDLVSWYQQHPGKAPKLMIYEVNKRPSGVSDRFSGSKSGNTASLTISGLQAEDEADFYCCSYAGSSSWVFGGGTKVTVL
B7: 单抗16-CQTS061 (antibody, V domains shown)
VH: EVQLVESGGGLVQPGGSLRLSCAASGFTVISNYMSWVRQAPGKGLEWVSVIYRGGSTYFADSVKGRFTISRDNSKNTLYLQMNSLRAEDTAVYYCARLASDGSGSYLDYFDYWGQGTLVTVSS
VL: QSVLTQPPSVSGAPGQRVTISCTGSSSNIGADYDVHWYQQFPGTAPKLLIYGNSNRPSGVPDRFSGSKSGTSASLAITGLQAEDEADYYCQSYDSSLSGSWVFGGGTKLTVL
B8: 单抗17-CQTS062 (antibody, V domains shown)
VH: EVQLVESGGGLVQPGRSLRLSCAASGFTFDDYAMHWVRQAPGKGLEWVSGISWNSDSIGYADSVKGRFTISRDNAKNSLYLQMNSLRAEDTALYYCAKDLSSGWDLFDYWGQGTLVTVSS
VL: SYVLTQPPSVSVAPGKTARITCGGNNIGSKSVHWYQQKPGQAPVLVIYYDSDRPSGIPERFSGSNSGNTATLSISRVEAGDEAGYYCQVWDTSGDPLVFGGGTKLTVL
B9: 单抗18-CQTS063 (antibody, V domains shown)
VH: QVQLVQSGAEVKKPGSSVKVSCKASGGTFSSYAISWVRQAPGQGLEWMGGIIPIFGTANYAQKFQGRVTITADESTSTAYMELSSLRSEDTAVYYCATDGGGGSYYYAHYYYGMDVWGQGTTVTVSS
VL: QTVVTQEPSFSVSPGGTVTLTCGLSSGSVPTSYFPSWYQQTPGQAPRTLIYGTNTRSSGVPDRFSGSILGNKAALTITGAQADDESDYYCVLYMGSGIVVFGGGTKLTVL
B10: 单抗19-CQTS064 (antibody, V domains shown)
VH: EVQLVQSGAEVKKPGESLKISCEGSGYSFISYWIGWVRQMPGKGLEWMGIIYPGDSDTRYSPSFQGQVTISADRSISTAYLQWSSLKASDTAMYYCVRSDGDYVIGHDYWGQGTLVTVSS
VL: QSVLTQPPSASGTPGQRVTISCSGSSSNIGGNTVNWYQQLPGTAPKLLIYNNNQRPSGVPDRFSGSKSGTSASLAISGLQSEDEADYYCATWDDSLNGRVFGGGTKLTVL

molecular target: SARS-COV-2RBD (SARS-CoV-2, UniProt P0DTC2 319-541); assay: ELISA, RBD coated at 2 μg/mL, 293T transfection supernatant, anti-human IgG-ALP detection

**Q.** Does B1 bind?
**A.** binds

**Q.** Does B2 bind?
**A.** binds

**Q.** Does B3 bind?
**A.** binds

**Q.** Does B4 bind?
**A.** binds

**Q.** Does B5 bind?
**A.** binds

**Q.** Does B6 bind?
**A.** binds

**Q.** Does B7 bind?
**A.** binds

**Q.** Does B8 bind?
**A.** binds

**Q.** Does B9 bind?
**A.** binds

**Q.** Does B10 bind?
**A.** binds

Reference: patent publication CN115477698A (UNIV CHONGQING MEDICAL; FENG YULIN, dated 2022)
